Experimental data: US20110118131A1 (published 2011)
Changes are numbered by the printed parent chain. In names and notes the source's numbering stands.

B1: XPA23 heavy chain I51L (Fab, V domains shown)
VH: EVQLLESGGGLVQPGGSLRLSCAASGFTFSKYFMFWVRQAPGKGLEWVSVLSPSGGMTRYADSVKGRFTISRDNSKNTLYLQMNSLRAEDTAVYYCARVGYGGNSDYWGQGTLVTVSS
VL: DIQMTQSPSSVSASVGDRLTIICRASQDINRWLAWYQQTPGNAPKLLIHSATSLQSGVPSRFSGSGSGTDFTLTINSLQPEDFATYYCQQADSFPLTFGGGTKVEIK
notes: Fab, periplasmic extract; also called C5A I51L
B2: XPA23 heavy chain S54I (Fab, V domains shown)
VH: B1 VH with L51I, S54I
VL: B1 VL
notes: Fab, periplasmic extract; also called C5A S54I
B3: XPA23 heavy chain S52P (Fab, V domains shown)
VH: B1 VH with L51I, S52P
VL: B1 VL
notes: Fab, periplasmic extract; also called C5A S52P
B4: XPA23 heavy chain I51T (Fab, V domains shown)
VH: B1 VH with L51T
VL: B1 VL
notes: Fab, periplasmic extract; also called C5A I51T
B5: XPA23 heavy chain M57L (Fab, V domains shown)
VH: B1 VH with L51I, M57L
VL: B1 VL
notes: Fab, periplasmic extract; also called C5A M57L
B6: XPA23 heavy chain R59G (Fab, V domains shown)
VH: B1 VH with L51I, R59G
VL: B1 VL
notes: Fab, periplasmic extract; also called C5A R59G
B7: XPA23 heavy chain N104V (Fab, V domains shown)
VH: B1 VH with L51I, N104V
VL: B1 VL
notes: Fab, periplasmic extract; also called C5A N104V
B8: XPA23 heavy chain N104T (Fab, V domains shown)
VH: B1 VH with L51I, N104T
VL: B1 VL
notes: Fab, periplasmic extract; also called C5A N104T
B9: XPA23 heavy chain N104L (Fab, V domains shown)
VH: B1 VH with L51I, N104L
VL: B1 VL
notes: Fab, periplasmic extract; also called C5A N104L
B10: XPA23 heavy chain N104G (Fab, V domains shown)
VH: B1 VH with L51I, N104G
VL: B1 VL
notes: Fab, periplasmic extract; also called C5A N104G
B11: XPA23 heavy chain S54T (Fab, V domains shown)
VH: B1 VH with L51I, S54T
VL: B1 VL
notes: Fab, periplasmic extract; also called C5A S54T
B12: XPA23 heavy chain K31L (Fab, V domains shown)
VH: B1 VH with K31L, L51I
VL: B1 VL
notes: Fab, periplasmic extract; also called C5A K31L
B13: XPA23 heavy chain P53A (Fab, V domains shown)
VH: B1 VH with L51I, P53A
VL: B1 VL
notes: Fab, periplasmic extract; also called C5A P53A
B14: XPA23 heavy chain M57T (Fab, V domains shown)
VH: B1 VH with L51I, M57T
VL: B1 VL
notes: Fab, periplasmic extract; also called C5A M57T
B15: XPA23 heavy chain M57V (Fab, V domains shown)
VH: B1 VH with L51I, M57V
VL: B1 VL
notes: Fab, periplasmic extract; also called C5A M57V
B16: XPA23 heavy chain M57A (Fab, V domains shown)
VH: B1 VH with L51I, M57A
VL: B1 VL
notes: Fab, periplasmic extract; also called C5A M57A
B17: XPA23 heavy chain K31I (Fab, V domains shown)
VH: B1 VH with K31I, L51I
VL: B1 VL
notes: Fab, periplasmic extract; also called C5A K31I
B18: XPA23 heavy chain S105I (Fab, V domains shown)
VH: B1 VH with L51I, S105I
VL: B1 VL
notes: Fab, periplasmic extract; also called C5A S105I
B19: XPA23 heavy chain S54A (Fab, V domains shown)
VH: B1 VH with L51I, S54A
VL: B1 VL
notes: Fab, periplasmic extract; also called C5A S54A
B20: XPA23 heavy chain S52G (Fab, V domains shown)
VH: B1 VH with L51I, S52G
VL: B1 VL
notes: Fab, periplasmic extract; also called C5A S52G
B21: XPA23 heavy chain P53V (Fab, V domains shown)
VH: B1 VH with L51I, P53V
VL: B1 VL
notes: Fab, periplasmic extract; also called C5A P53V
B22: XPA23 heavy chain S54P (Fab, V domains shown)
VH: B1 VH with L51I, S54P
VL: B1 VL
notes: Fab, periplasmic extract; also called C5A S54P
B23: XPA23 heavy chain M57I (Fab, V domains shown)
VH: B1 VH with L51I, M57I
VL: B1 VL
notes: Fab, periplasmic extract; also called C5A M57I
B24: XPA23 heavy chain S52T (Fab, V domains shown)
VH: B1 VH with L51I, S52T
VL: B1 VL
notes: Fab, periplasmic extract; also called C5A S52T
B25: XPA23 heavy chain S105A (Fab, V domains shown)
VH: B1 VH with L51I, S105A
VL: B1 VL
notes: Fab, periplasmic extract; also called C5A S105A
B26: XPA23 heavy chain N104A (Fab, V domains shown)
VH: B1 VH with L51I, N104A
VL: B1 VL
notes: Fab, periplasmic extract; also called C5A N104A
B27: XPA23 heavy chain K31V (Fab, V domains shown)
VH: B1 VH with K31V, L51I
VL: B1 VL
notes: Fab, periplasmic extract; also called C5A K31V
B28: XPA23 heavy chain S30A (Fab, V domains shown)
VH: B1 VH with S30A, L51I
VL: B1 VL
notes: Fab, periplasmic extract; also called C5A S30A
B29: XPA23 heavy chain S30L (Fab, V domains shown)
VH: B1 VH with S30L, L51I
VL: B1 VL
notes: Fab, periplasmic extract; also called C5A S30L
B30: XPA23 heavy chain S54V (Fab, V domains shown)
VH: B1 VH with L51I, S54V
VL: B1 VL
notes: Fab, periplasmic extract; also called C5A S54V
B31: XPA23 heavy chain R59T (Fab, V domains shown)
VH: B1 VH with L51I, R59T
VL: B1 VL
notes: Fab, periplasmic extract; also called C5A R59T
B32: XPA23 heavy chain P53L (Fab, V domains shown)
VH: B1 VH with L51I, P53L
VL: B1 VL
notes: Fab, periplasmic extract; also called C5A P53L
B33: XPA23 heavy chain S30T (Fab, V domains shown)
VH: B1 VH with S30T, L51I
VL: B1 VL
notes: Fab, periplasmic extract; also called C5A S30T
B34: XPA23 heavy chain S54L (Fab, V domains shown)
VH: B1 VH with L51I, S54L
VL: B1 VL
notes: Fab, periplasmic extract; also called C5A S54L
B35: XPA23 heavy chain S105G (Fab, V domains shown)
VH: B1 VH with L51I, S105G
VL: B1 VL
notes: Fab, periplasmic extract; also called C5A S105G
B36: XPA23 heavy chain S52A (Fab, V domains shown)
VH: B1 VH with L51I, S52A
VL: B1 VL
notes: Fab, periplasmic extract; also called C5A S52A
B37: XPA23 heavy chain S30I (Fab, V domains shown)
VH: B1 VH with S30I, L51I
VL: B1 VL
notes: Fab, periplasmic extract; also called C5A S30I
B38: XPA23 heavy chain R59L (Fab, V domains shown)
VH: B1 VH with L51I, R59L
VL: B1 VL
notes: Fab, periplasmic extract; also called C5A R59L
B39: XPA23 heavy chain R59P (Fab, V domains shown)
VH: B1 VH with L51I, R59P
VL: B1 VL
notes: Fab, periplasmic extract; also called C5A R59P
B40: XPA23 heavy chain P53I (Fab, V domains shown)
VH: B1 VH with L51I, P53I
VL: B1 VL
notes: Fab, periplasmic extract; also called C5A P53I
B41: XPA23 heavy chain I51V (Fab, V domains shown)
VH: B1 VH with L51V
VL: B1 VL
notes: Fab, periplasmic extract; also called C5A I51V
B42: XPA23 heavy chain S52V (Fab, V domains shown)
VH: B1 VH with L51I, S52V
VL: B1 VL
notes: Fab, periplasmic extract; also called C5A S52V
B43: XPA23 heavy chain S54G (Fab, V domains shown)
VH: B1 VH with L51I, S54G
VL: B1 VL
notes: Fab, periplasmic extract; also called C5A S54G
B44: XPA23 heavy chain S30G (Fab, V domains shown)
VH: B1 VH with S30G, L51I
VL: B1 VL
notes: Fab, periplasmic extract; also called C5A S30G
B45: XPA23 heavy chain P53G (Fab, V domains shown)
VH: B1 VH with L51I, P53G
VL: B1 VL
notes: Fab, periplasmic extract; also called C5A P53G

molecular target: T1, IL-1β (UniProt P01584 117-269); assay: Biacore, Fab periplasmic extract
T1 construct: Antigen of XPA23

fold difference in affinity against the original [fold] | Binder
0.79 | B1
0.86 | B2
0.05 | B3
0.86 | B4
0.06 | B5
1.04 | B6
1.27 | B7
0.95 | B8
1.19 | B9
1.21 | B10
0.14 | B11
1.08 | B12
0.05 | B13
0.06 | B14
0.03 | B15
0.03 | B16
0.74 | B17
0.07 | B18
1 | B19
0.03 | B20
1.1 | B21
0.06 | B22
0.03 | B23

fold difference in affinity against the original [fold] | Binder
0.04 | B24
0.84 | B25
1.61 | B26
0.81 | B27
0.77 | B28
0.91 | B29
1 | B30
0.76 | B31
0.04 | B32
0.06 | B33
0.91 | B34
0.12 | B35
0.05 | B36
0.08 | B37
0.08 | B38
0.07 | B39
0.08 | B40
0.99 | B41
0.04 | B42
1.43 | B43
0.13 | B44
0.02 | B45
